Data from patent publication US20240252614A1 (Pfizer, published 2024).

Key:
hMPV124 = biological target: T1, hMPV124 (hMPV B, UniProt Q6WB98 19-102); test: BLI, 56C stress
T1 construct: L141C-A161C, T411C-Q434C, A459P
Procedure: (§1) All measurements were conducted at 30° C. temperature in 96-well black plates (Corning, Corning, NY) with a final volume of 240 μL per well at a constant agitation rate of 1000 RPM.
(§2) Conformation integrity of hMPV B F protein mutants were evaluated by a thermal stress experiment. Crude cell culture supernatants were normalized based on the results of the titer quantitation and then incubated for 1 hour at room temperature and two higher temperatures. For the testing of hMPV B single mutants, the two temperatures were 53° C. and 56° C. After the incubation, the protein mutants were probed with prefusion specific monoclonal antibody hMPV-2 by OCTET HTX. Anti-Human IgG Fc Capture (AHC) biosensors were first equilibrated in PB before being dipped into more PB for to establish the initial baseline. Biosensors were incubated with hMPV-2 before being equilibrated in PB to establish the experimental baseline. The mAb-bound biosensors were then dipped into the thermal stresses cell culture supernatants for 5 minutes.

hMPV130 = biological target: T2, hMPV130 (hMPV B, UniProt Q6WB98 19-102); test: BLI, 56C stress
T2 construct: L141C-A161C, G239A, T411C-Q434C, A459P
Procedure: as §1, §2

hMPV119 = biological target: T3, hMPV119 (hMPV B, UniProt Q6WB98 19-102); test: BLI, 56C stress
T3 construct: T49I, T150C-R156C, A459P
Procedure: as §1, §2

hMPV139 = biological target: T4, hMPV139 (hMPV B, UniProt Q6WB98 19-102); test: BLI, 56C stress
T4 construct: T49I, L141C-A161C, T411C-Q434C
Procedure: as §1, §2

hMPV128 = biological target: T5, hMPV128 (hMPV B, UniProt Q6WB98 19-102); test: BLI, 56C stress
T5 construct: T49I, A140C-S149C, G239A, T411C-Q434C, A459P
Procedure: as §1, §2

hMPV131 = biological target: T6, hMPV131 (hMPV B, UniProt Q6WB98 19-102); test: BLI, 56C stress
T6 construct: T49I, L141C-A161C, G239A, T411C-Q434C, A459P
Procedure: as §1, §2

hMPV138 = biological target: T7, hMPV138 (hMPV B, UniProt Q6WB98 19-102); test: BLI, 56C stress
T7 construct: T49I, A140C-S149C, A459P
Procedure: as §1, §2

hMPV142 = biological target: T8, hMPV142 (hMPV B, UniProt Q6WB98 19-102); test: BLI, 56C stress
T8 construct: L141C-A161C, S149T, A459P
Procedure: as §1, §2

hMPV066 = biological target: T9, hMPV066 (hMPV A, UniProt Q6WB98 19-102); test: BLI, 50C stress, vs WT Control
T9 construct: T49I
Procedure: (§3) The OCTET HTX (Sartorius, Gottingen, Germany) instrument was used to evaluate the expression and conformational integrity for each mutant. All measurements were conducted at 30° C. temperature in 96-well black plates (Corning, Corning, NY) with a final volume of 240 μL per well at a constant agitation rate of 1000 RPM.
(§4) Conformation integrity of hMPV A F protein mutants were evaluated by thermal stress experiments. Crude cell culture supernatants were normalized based on the results of the titer quantitation and then incubated for 1 hour at room temperature and two higher temperatures. […] Anti-Human IgG Fc Capture (AHC) biosensors were first equilibrated in PB before being dipped into more PB to establish the initial baseline. […] The mAb-bound biosensors were then dipped into the thermal stressed cell culture supernatants for 5 minutes. The kinetics analysis was done by OCTET data analysis software (version 12.0, Sartorius) based on curve fitting of the entire associate step.

hMPV045 = biological target: T10, hMPV045 (hMPV A, UniProt Q6WB98 19-102); test: BLI, 50C stress, vs WT Control
T10 construct: I137C-A159C
Procedure: as §3, §4

hMPV069 = biological target: T11, hMPV069 (hMPV A, UniProt Q6WB98 19-102); test: BLI, 50C stress, vs WT Control
T11 construct: S291I
Procedure: as §3, §4

hMPV050 = biological target: T12, hMPV050 (hMPV A, UniProt Q6WB98 19-102); test: BLI, 50C stress, vs WT Control
T12 construct: V148C-L158C
Procedure: as §3, §4

hMPV060 = biological target: T13, hMPV060 (hMPV A, UniProt Q6WB98 19-102); test: BLI, 50C stress, vs WT Control
T13 construct: A459P
Procedure: as §3, §4

hMPV059 = biological target: T14, hMPV059 (hMPV A, UniProt Q6WB98 19-102); test: BLI, 50C stress, vs WT Control
T14 construct: V449P
Procedure: as §3, §4

hMPV055 = biological target: T15, hMPV055 (hMPV A, UniProt Q6WB98 19-102); test: BLI, 50C stress, vs WT Control
T15 construct: N145P
Procedure: as §3, §4

hMPV079 = biological target: T16, hMPV079 (hMPV A, UniProt Q6WB98 19-102); test: BLI, no stress
T16 construct: T411C-Q434C, A140C-S149C, A459P
Procedure: as §3, §4

hMPV085 = biological target: T17, hMPV085 (hMPV A, UniProt Q6WB98 19-102); test: BLI, no stress
T17 construct: T411C-Q434C, L141C-A161C, A459P
Procedure: as §3, §4

hMPV088 = biological target: T18, hMPV088 (hMPV A, UniProt Q6WB98 19-102); test: BLI, no stress
T18 construct: T411C-Q434C, L141C-A161C, G239A
Procedure: as §3, §4

hMPV097 = biological target: T19, hMPV097 (hMPV A, UniProt Q6WB98 19-102); test: BLI, no stress
T19 construct: T411C-Q434C, E146C-T160C, A459P, G239A, T49I, S149T, T365I
Procedure: as §3, §4

hMPV083 = biological target: T20, hMPV083 (hMPV A, UniProt Q6WB98 19-102); test: BLI, no stress
T20 construct: T411C-Q434C, A140C-S149C, A459P, G239A, T49I, T365I
Procedure: as §3, §4

hMPV087 = biological target: T21, hMPV087 (hMPV A, UniProt Q6WB98 19-102); test: BLI, no stress
T21 construct: T411C-Q434C, L141C-A161C, T365I
Procedure: as §3, §4

hMPV084 = biological target: T22, hMPV084 (hMPV A, UniProt Q6WB98 19-102); test: BLI, no stress
T22 construct: T411C-Q434C, L141C-A161C
Procedure: as §3, §4

hMPV081 = biological target: T23, hMPV081 (hMPV A, UniProt Q6WB98 19-102); test: BLI, no stress
T23 construct: T411C-Q434C, A140C-S149C, T365I
Procedure: as §3, §4

hMPV A F WT Control = hMPV A F WT Control (hMPV A, UniProt Q6WB98 19-102); test: BLI, no stress
Procedure: as §3, §4

hMPV090 = biological target: T24, hMPV090 (hMPV A, UniProt Q6WB98 19-102); test: BLI, no stress
T24 construct: T411C-Q434C, L141C-A161C, A459P, G239A, T49I, S149T, T365I
Procedure: as §3, §4

hMPV086 = biological target: T25, hMPV086 (hMPV A, UniProt Q6WB98 19-102); test: BLI, no stress
T25 construct: T411C-Q434C, L141C-A161C, T49I; also called hMP0086
Procedure: as §3, §4

hMPV082 = biological target: T26, hMPV082 (hMPV A, UniProt Q6WB98 19-102); test: BLI, no stress
T26 construct: T411C-Q434C, A140C-S149C, G239A
Procedure: as §3, §4

hMPV089 = biological target: T27, hMPV089 (hMPV A, UniProt Q6WB98 19-102); test: BLI, no stress
T27 construct: T411C-Q434C, L141C-A161C, S149T
Procedure: as §3, §4

hMPV078 = biological target: T28, hMPV078 (hMPV A, UniProt Q6WB98 19-102); test: BLI, no stress
T28 construct: T411C-Q434C, A140C-S149C
Procedure: as §3, §4

B1: hMPV-2 mAb (antibody, V domains shown)
VH: QVQLQQSGAEVKKPGASVKVSCKASGYTFTSYGISWVRQAPGQGLEWMGWISGYNGNTNYAQTFQGTFTMTTDTSTSTAYMELRRLRSGDTAVYYCARDRYYASGSYNGMDVWGQGTTVTVSS
VL: QSALTQPPSASGAPGQRVTVSCSGSSSNVGSSSVYWYQQLPGTAPKLLIYRNNQRPSGVPDRFSGSKSGTSASLAISGLRSEDEADYYCAAWDDSLSGWVFGGGTKLTVLG
notes: human IgG1
- Response Shift (hMPV124): 0.766 nm
- Response Shift (hMPV130): 0.62 nm
- Response Shift (hMPV119): 0.828 nm
- Response Shift (hMPV139): 0.65 nm
- Response Shift (hMPV128): 0.769 nm
- Response Shift (hMPV131): 0.657 nm
- Response Shift (hMPV138): 0.663 nm
- Response Shift (hMPV142): 0.706 nm
- Fold change vs WT (hMPV066): 2.6 fold
- Fold change vs WT (hMPV045): 0.4 fold
- Fold change vs WT (hMPV069): 1.6 fold
- Fold change vs WT (hMPV050): 0.5 fold
- Fold change vs WT (hMPV060): 2.5 fold
- Fold change vs WT (hMPV059): 1.6 fold
- Fold change vs WT (hMPV055): 0.7 fold
- Response Shift (hMPV079): 0.791 nm
- Response Shift (hMPV085): 0.766 nm
- Response Shift (hMPV088): 0.878 nm
- Response Shift (hMPV097): 0.923 nm
- Response Shift (hMPV083): 0.847 nm
- Response Shift (hMPV087): 0.867 nm
- Response Shift (hMPV084): 0.862 nm
- Response Shift (hMPV081): 0.837 nm
- Response Shift (hMPV A F WT Control): 0.898 nm
- Response Shift (hMPV090): 0.895 nm
- Response Shift (hMPV086): 0.851 nm
- Response Shift (hMPV082): 0.854 nm
- Response Shift (hMPV089): 0.891 nm
- Response Shift (hMPV078): 0.86 nm
